These results are taken from article PMC5352116.

The test has as its target Death Receptor 5 (DR5) (human (endogenous in MCF-10A-Tr)), O14763. The test can be described thus: co-IP; DISC analysis: MCF-10A-Tr cells untreated or treated with QC, TRAIL or TRAIL (10 ng/mL, 3 h) then QC (2.5 uM, 48 h); RIPA lysate, pre-cleared with sepharose-4B beads, immunoprecipitated with anti-DR5 antibody at 4°C overnight; western blot. The settings on record: remark: other sources report otherwise. A general note: A western blot detects proteins with antibodies after separation by electrophoresis.

B1: CASPASE 8, Q14790 1-479 (enzyme)
chain: MDFSRNLYDIGEQLDSEDLASLKFLSLDYIPQRKQEPIKDALMLFQRLQEKRMLEESNLSFLKELLFRINRLDLLITYLNTRKEEMERELQTPGRAQISAYRVMLYQISEEVSRSELRSFKFLLQEEISKCKLDDDMNLLDIFIEMEKRVILGEGKLDILKRVCAQINKSLLKIINDYEEFSKERSSSLEGSPDEFSNGEELCGVMTISDSPREQDSESQTLDKVYQMKSKPRGYCLIINNHNFAKAREKVPKLHSIRDRNGTHLDAGALTTTFEELHFEIKPHDDCTVEQIYEILKIYQLMDHSNMDCFICCILSHGDKGIIYGTDGQEAPIYELTSQFTGLKCPSLAGKPKVFFIQACQGDNYQKGIPVETDSEEQPYLEMDLSSPQTRYIPDEADFLLGMATVNNCVSYRNPAEGTWYIQSLCQSLRERCPRGDDILTILTEVNYEVSNKDDKKNMGKQMPQPTFTLRKKLVFPSD
As for B1, the fold level in the DISC (anti-DR5 immunoprecipitate), TRAIL+QC treated against untreated cells is 7 fold.
